Consider five molecules from paper PMC10533412 (2023).

The target of assay [1] is BTN3A1 B30.2 (Homo sapiens, UniProt O00481). As to the kind of experiment: ITC. In general terms: In ITC the heat of successive injections is recorded.
The target in assay [2] is BTN3A3 B30.2 (Homo sapiens, UniProt O00478). As to the kind of experiment: ITC.
In assay [3] the target is BTN3A1 B30.2 domain (human, UniProt O00481 328-513). The experiment in a line: ITC; with HMBPP.
BTN3A1 B30.2 domain, sequence (O00481 other isoform, or with tags, fused parts or gaps): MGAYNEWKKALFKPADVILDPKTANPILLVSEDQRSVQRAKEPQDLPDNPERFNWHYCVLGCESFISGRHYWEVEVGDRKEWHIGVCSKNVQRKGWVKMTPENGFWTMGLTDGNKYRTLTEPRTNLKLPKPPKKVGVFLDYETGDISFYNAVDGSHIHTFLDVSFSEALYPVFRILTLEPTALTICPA

BTN3A1 B30.2, sequence (O00481 319-513): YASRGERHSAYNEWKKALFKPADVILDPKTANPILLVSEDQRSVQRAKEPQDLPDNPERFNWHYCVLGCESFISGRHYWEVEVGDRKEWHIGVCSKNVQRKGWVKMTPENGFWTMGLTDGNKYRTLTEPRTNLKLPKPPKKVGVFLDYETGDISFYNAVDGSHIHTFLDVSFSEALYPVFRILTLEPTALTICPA
BTN3A3 B30.2, sequence (O00478 319-521): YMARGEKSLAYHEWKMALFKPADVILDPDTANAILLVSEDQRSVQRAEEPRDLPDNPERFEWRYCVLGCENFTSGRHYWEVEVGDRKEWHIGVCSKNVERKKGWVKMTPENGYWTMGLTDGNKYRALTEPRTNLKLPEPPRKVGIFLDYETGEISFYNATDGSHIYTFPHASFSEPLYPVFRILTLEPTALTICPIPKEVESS

B1: BTN2A1 B30.2 (protein)
chain: ELQVKEKLQEELRWRRTFLHAVDVVLDPDTAHPDLFLSEDRRSVRRCPFRHLGESVPDNPERFDSQPCVLGRESFASGKHYWEVEVENVIEWTVGVCRDSVERKGEVLLIPQNGFWTLEMHKGQYRAVSSPDRILPLKESLCRVGVFLDYEAGDVSFYNMRDRSHIYTCPRSAFSVPVRPFFRLGCEDSPIFICPALTGANGV
modifications: DMAPP
What is called Kd is the constant that tells how readily two partners part at equilibrium. Molecule B1 yielded a dissociation constant Kd in assay [1] of 12.3 µM.

B2: BTN2A1 B30.2 (protein)
chain: ELQVKEKLQEELRWRRTFLHAVDVVLDPDTAHPDLFLSEDRRSVHRCPFRHLGESVPDNPERFDSQPCVLGRESFASGKHYWEVEVENVIEWTVGVCRDSVERKGEVLLIPQNGFWTLEMHKGQYRAVSSPDRILPLKESLCRVGVFLDYEAGDVSFYNMRDRSHIYTCPRSAFSVPVRPFFRLGCEDSPIFICPALTGANGV
As to B2, the Kd in assay [2] amounted to 460 nM.

B3: BTN2A1 B30.2 (protein)
chain: ELQVKEKLQEELRWRRTFLHAVDVVLDPDTAHPDLFLSEDRRSVRRCPFRHLGESVPDNPERFDSQPCVLGRESFASGKHYWEVEVENVIEWTVGVCRDSVERKGEVLLIPQNGFWTLEMHKGQYRAVSSPDRILPLKESLCRVGVFLDYEAGDVSFYNMRDRSHIYTCPRSAFSVPVRPFFRLGCEDSPIFICPALTGANGV
modifications: IPP
In assay [1], B3 came in with a Kd of 155 µM.

B4: BTN2A1 B30.2 (protein)
chain: ELQVKEKLQEELRWRRTFLHAVDVVLDPDTAHPDLFLSEDRRSVRRCPFRHLGESVPDNPERFDSQPCVLGRESFASGKHYWEVEVENVIEWTVGVCRDSVERKGEVLLIPQNGFWTLEMHKGQYRAVSSPDRILPLKESLCRVGVFLDYEAGDVSFYNMRDRSHIYTCPRSAFSVPVRPFFRLGCEDSPIFICPALTGANGV
modifications: HMBPP
In assay [1], B4 showed a Kd of 0.611 µM.

B5: BTN2A1 B30.2 domain (domain or fragment)
chain: EELRWRRTFLHAVDVVLDPDTAHPDLFLSEDRRSVRRCPFRHLGESVPDNPERFDSQPCVLGRESFASGKHYWEVEVENVIEWTVGVCRDSVERKGEVLLIPQNGFWTLEMHKGQYRAVSSPDRILPLKESLCRVGVFLDYEAGDVSFYNMRDRSHIYTCPRSAFSVPVRPFFRLGCEDSPIFICPALTGANGVTVPEEGLTLHRVGTHQSL
modifications: limits from PDB 5ZXK/8JYE entity without the C-terminal LEHHHHHH; paper number minus 295 = entity position
In assay [3], B5 yielded a Kd of 600 nM.
